Target: T1, V/A-ATPase D subunit, Thermus thermophilus (T. thermophilus, UniProt O87880 1-223)
T1 construct: V/A-ATPase D subunit (central rotor), Thermus thermophilus; also called part of the DF rotor; DF axis
T1 sequence: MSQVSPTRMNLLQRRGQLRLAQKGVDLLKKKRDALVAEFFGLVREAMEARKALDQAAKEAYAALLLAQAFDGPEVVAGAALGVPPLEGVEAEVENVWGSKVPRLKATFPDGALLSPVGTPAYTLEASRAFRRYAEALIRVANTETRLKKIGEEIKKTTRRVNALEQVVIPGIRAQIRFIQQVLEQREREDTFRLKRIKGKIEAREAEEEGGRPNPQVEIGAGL
Assay: cryo-EM structure; nucleotide-free V/A-ATPase in nanodiscs, 4 uM enzyme mixed with an equal volume of x2 RB buffer (50 mM Tris-Cl pH 8.0, 100 mM KCl, 2 mM MgCl2, 5 mM PEP, 100 ug/ml PK, 20 mM ammonium sulfate) with ATP-Mg (low ATP, 60 s; or saturating ATP, 5 s or 30 s) at 25 °C; single-particle analysis, membrane domain subtracted, focused refinement of V1EG
Conditions: both partners purified

B1: V/A-ATPase F subunit, Thermus thermophilus (natural protein, T. thermophilus)
chain: MAVIADPETAQGFRLAGLEGYGASSAEEAQSLLETLVERGGYALVAVDEALLPDPERAVERLMRGRDLPVLLPIAGLKEAFQGHDVEGYMRELVRKTIGFDIKL
notes: V/A-ATPase F subunit (central rotor), Thermus thermophilus; also called part of the DF rotor; DF axis
binding result: binds

— publication PMC9971907, “Cryo-EM analysis of V/A-ATPase intermediates reveals the transition of the ground-state structure to steady-state structures by sequential ATP binding” (The Journal of Biological Chemistry, 2023)
